According to article PMC12305957:

Columns and labels:
[1] = target: T1, Reb1 (Saccharomyces cerevisiae) (UniProt P21538); experiment: EMSA; conditions: 11.87 mM HEPES-KOH pH 7.9, 3 mM Tris-Cl, 96.67 mM NaCl, 3.33 mM KCl, 5.3 mM MgCl2, 0.13 mM Mg acetate, 1.33 uM ZnCl2, 0.05% NP-40, 10% glycerol, 100 ug/mL BSA …
T1 sequence: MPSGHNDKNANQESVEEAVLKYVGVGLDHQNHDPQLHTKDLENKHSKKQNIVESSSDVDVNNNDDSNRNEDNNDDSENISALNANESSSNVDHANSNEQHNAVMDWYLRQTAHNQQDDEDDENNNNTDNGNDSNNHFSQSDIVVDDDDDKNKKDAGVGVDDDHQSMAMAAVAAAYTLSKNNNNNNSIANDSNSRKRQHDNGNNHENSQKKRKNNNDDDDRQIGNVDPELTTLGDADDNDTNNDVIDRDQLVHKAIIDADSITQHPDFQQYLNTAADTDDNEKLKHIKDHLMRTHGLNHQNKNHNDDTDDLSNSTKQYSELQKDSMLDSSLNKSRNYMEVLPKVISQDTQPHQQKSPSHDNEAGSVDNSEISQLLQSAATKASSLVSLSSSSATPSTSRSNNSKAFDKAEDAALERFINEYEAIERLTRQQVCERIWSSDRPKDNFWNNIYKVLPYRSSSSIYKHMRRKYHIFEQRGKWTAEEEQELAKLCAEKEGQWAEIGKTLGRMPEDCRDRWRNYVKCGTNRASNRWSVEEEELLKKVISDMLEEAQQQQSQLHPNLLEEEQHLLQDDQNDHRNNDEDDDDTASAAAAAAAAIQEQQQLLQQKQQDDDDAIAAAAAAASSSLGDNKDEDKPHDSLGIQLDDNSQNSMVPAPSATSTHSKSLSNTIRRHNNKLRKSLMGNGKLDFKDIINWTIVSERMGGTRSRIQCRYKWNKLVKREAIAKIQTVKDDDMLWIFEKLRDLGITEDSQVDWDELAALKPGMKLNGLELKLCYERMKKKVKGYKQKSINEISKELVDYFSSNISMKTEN

[2] = target: T2, Abf1 (Saccharomyces cerevisiae) (UniProt P14164); experiment: EMSA; conditions: 11.87 mM HEPES-KOH pH 7.9, 3 mM Tris-Cl, 96.67 mM NaCl, 3.33 mM KCl, 5.3 mM MgCl2, 0.13 mM Mg acetate, 1.33 uM ZnCl2, 0.05% NP-40, 10% glycerol, 100 ug/mL BSA …
T2 sequence: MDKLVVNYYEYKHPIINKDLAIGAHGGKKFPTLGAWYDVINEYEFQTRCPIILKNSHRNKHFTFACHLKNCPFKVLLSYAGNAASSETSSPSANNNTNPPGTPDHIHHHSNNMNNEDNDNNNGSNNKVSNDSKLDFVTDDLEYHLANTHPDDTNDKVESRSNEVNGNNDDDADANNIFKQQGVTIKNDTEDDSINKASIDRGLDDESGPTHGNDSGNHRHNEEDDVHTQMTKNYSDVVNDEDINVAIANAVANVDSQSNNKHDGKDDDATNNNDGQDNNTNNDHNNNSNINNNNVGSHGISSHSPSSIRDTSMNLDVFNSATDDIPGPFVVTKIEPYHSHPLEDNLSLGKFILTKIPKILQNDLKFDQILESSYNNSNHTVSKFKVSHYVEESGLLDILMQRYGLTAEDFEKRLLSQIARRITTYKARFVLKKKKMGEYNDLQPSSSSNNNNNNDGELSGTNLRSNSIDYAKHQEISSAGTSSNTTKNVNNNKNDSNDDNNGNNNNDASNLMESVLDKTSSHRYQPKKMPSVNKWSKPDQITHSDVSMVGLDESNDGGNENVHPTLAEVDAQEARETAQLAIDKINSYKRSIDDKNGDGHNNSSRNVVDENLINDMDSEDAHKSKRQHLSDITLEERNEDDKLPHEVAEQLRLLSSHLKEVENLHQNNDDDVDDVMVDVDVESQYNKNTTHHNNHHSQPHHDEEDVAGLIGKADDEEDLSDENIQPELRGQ

Sequence | Kd [1] [nM] | Kd [2] [nM]
ACAGGATGTATATATCTGACACGTGCCTGGAGACTAGGGAGTAATCCCCTTGGCGGTTAAAACGCGGGGGACAGCGCGTACGTGCGTTTAAGCGGTGCTAGAGCTGTCTACGACCAATTGAGCGGCCTCGGCACCGGGATTCTCCAGGGCGGCCGGCCGGGTAACGCATCACCATGGTGATGACCGCGGACCTGCAGGCATGCAAGCTTGAGTATTCTATAGTGTCA (double strand) [NC-80/G-GC nucleosome] | 1.07 | –
ACAGGATGTATATATCTGACACGTGCCTGGAGACTAGGGAGTAATCCCCTTGGCGGTTAAAACGCGGGGGACAGCGCGTACGTGCGTTTAAGCGGTGCTAGAGCTGTCTACGACCAATTGAGCGGCCTCGGCACCGGGATTCTCCAGGGCGGCCGCTAATCGTATTGCATGATATGGTGATGACCGCGGACCTGCAGGCATGCAAGCTTGAGTATTCTATAGTGTCA (double strand) [NC-80/A-T nucleosome] | – | 2.39
ACAGGATGTATATATCTGACACGTGCCTGGAGACTAGGGAGTAATCCCCTTGGCGGTTAAAACGCGGGGGACAGCGCGTACGTGCGTTTAAGCGGTGCTAGAGCTGTCTACGACCAATTGAGCGGCCTCGGCACCGGGATTCTCCAGGGCGGCCGCTTATCGTATAAAGTGATAGGGTGATGACCGCGGACCTGCAGGCATGCAAGCTTGAGTATTCTATAGTGTCA (double strand) [NC-80/A3G nucleosome] | – | 2.22
ACAGGATGTATATATCTGACACGTGCCTGGAGACTAGGGAGTAATCCCCTTGGCGGTTAAAACGCGGGGGACAGCGCGTACGTGCGTTTAAGCGGTGCTAGAGCTGTCTACGACCAATTGAGCGGCCTCGGCACCGGGATTCTCCAGGGCGGCCGGACGGGTAACGCATCACCATGGTGATGACCGCGGACCTGCAGGCATGCAAGCTTGAGTATTCTATAGTGTCA (double strand) [NC-80/G-TC nucleosome] | 1.11 | –
ACAGGATGTATATATCTGACACGTGCCTGGAGACTAGGGAGTAATCCCCTTGGCGGTTAAAACGCGGGGGACAGCGCGTACGTGCGTTTAAGCGGTGCTAGAGCTGTCTACGACCAATTGAGCGGCCTCGGCACCGGGATTCTCCAGGGCGGCCGCTTATCGTATTGCATGATAGGGTGATGACCGCGGACCTGCAGGCATGCAAGCTTGAGTATTCTATAGTGTCA (double strand) [NC-80/T-G nucleosome] | – | 2.49
ACAGGATGTATATATCTGACACGTGCCTGGAGACTAGGGAGTAATCCCCTTGGCGGTTAAAACGCGGGGGACAGCGCGTACGTGCGTTTAAGCGGTGCTAGAGCTGTCTACGACCAATTGAGCGGCCTCGGCACCGGGATTCTCCAGGGCGGCCGCTCGGGTAAAGCATCACCATGGTGATGACCGCGGACCTGCAGGCATGCAAGCTTGAGTATTCTATAGTGTCA (double strand) [NC-80/T-AG nucleosome] | 5.94 | –
ACAGGATGTATATATCTGACACGTGCCTGGAGACTAGGGAGTAATCCCCTTGGCGGTTAAAACGCGGGGGACAGCGCGTACGTGCGTTTAAGCGGTGCTAGAGCTGTCTACGACCAATTGAGCGGCCTCGGCACCGGGATTCTCCAGGGCGGCCGCCCGGGTAACGCATCACCATGGTGATGACCGCGGACCTGCAGGCATGCAAGCTTGAGTATTCTATAGTGTCA (double strand) [NC-80/G-GG nucleosome] | 1.06 | –
ACAGGATGTATATATCTGACACGTGCCTGGAGACTAGGGAGTAATCCCCTTGGCGGTTAAAACGCGGGGGACAGCGCGTACGTGCGTTTAAGCGGTGCTAGAGCTGTCTACGACCAATTGAGCGGCCTCGGCACCGGGATTCTCCAGGGCGGCCGCTTATCGTATTGCATGATATGGTGATGACCGCGGACCTGCAGGCATGCAAGCTTGAGTATTCTATAGTGTCA (double strand) [NC-80/T-T nucleosome] | – | 2.52
